Data published in the supplement of paper PMC10065799, “High-throughput profiling of sequence recognition by tyrosine kinases and SH2 domains using bacterial peptide display” (eLife, 2023).

How the values were obtained:
[1] = target: Fyn (UniProt P06241); assay: phosphorylation enrichment, bacterial display (enrichment ratio); higher = better substrate or ligand; peptides without Tyr show the background
[2] = tested on: Fer (mouse); assay: as above
[3] = target: EPHB1 (UniProt P54762); assay: as above
EPHB1, sequence (P54762 whole entry, looked up): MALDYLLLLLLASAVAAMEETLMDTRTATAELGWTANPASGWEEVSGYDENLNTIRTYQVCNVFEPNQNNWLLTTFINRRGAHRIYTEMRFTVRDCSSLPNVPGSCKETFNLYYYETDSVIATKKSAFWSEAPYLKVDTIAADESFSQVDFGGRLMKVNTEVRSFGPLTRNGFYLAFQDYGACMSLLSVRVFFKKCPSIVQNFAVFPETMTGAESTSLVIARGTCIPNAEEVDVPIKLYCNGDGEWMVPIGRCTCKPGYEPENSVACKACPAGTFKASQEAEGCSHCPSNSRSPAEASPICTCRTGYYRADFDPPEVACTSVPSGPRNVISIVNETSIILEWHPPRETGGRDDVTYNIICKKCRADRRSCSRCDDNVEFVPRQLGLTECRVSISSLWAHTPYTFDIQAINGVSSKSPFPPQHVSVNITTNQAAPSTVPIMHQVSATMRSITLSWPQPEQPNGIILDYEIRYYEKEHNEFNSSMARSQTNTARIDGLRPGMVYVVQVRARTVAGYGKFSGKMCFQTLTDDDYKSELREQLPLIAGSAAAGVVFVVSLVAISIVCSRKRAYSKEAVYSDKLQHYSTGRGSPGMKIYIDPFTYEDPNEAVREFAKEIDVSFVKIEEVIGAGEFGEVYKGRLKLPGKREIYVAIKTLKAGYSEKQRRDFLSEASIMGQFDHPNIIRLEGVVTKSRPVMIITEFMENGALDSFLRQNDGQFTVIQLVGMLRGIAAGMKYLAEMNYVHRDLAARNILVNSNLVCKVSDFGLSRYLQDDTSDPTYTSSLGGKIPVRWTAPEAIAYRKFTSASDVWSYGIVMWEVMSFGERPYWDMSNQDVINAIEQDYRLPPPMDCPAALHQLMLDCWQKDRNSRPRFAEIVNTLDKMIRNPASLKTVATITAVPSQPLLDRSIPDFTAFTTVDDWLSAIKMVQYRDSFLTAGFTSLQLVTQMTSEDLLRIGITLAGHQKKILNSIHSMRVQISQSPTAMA

[4] = target: FGFR3 (UniProt P22607); assay: as above
FGFR3, sequence (P22607 whole entry, looked up): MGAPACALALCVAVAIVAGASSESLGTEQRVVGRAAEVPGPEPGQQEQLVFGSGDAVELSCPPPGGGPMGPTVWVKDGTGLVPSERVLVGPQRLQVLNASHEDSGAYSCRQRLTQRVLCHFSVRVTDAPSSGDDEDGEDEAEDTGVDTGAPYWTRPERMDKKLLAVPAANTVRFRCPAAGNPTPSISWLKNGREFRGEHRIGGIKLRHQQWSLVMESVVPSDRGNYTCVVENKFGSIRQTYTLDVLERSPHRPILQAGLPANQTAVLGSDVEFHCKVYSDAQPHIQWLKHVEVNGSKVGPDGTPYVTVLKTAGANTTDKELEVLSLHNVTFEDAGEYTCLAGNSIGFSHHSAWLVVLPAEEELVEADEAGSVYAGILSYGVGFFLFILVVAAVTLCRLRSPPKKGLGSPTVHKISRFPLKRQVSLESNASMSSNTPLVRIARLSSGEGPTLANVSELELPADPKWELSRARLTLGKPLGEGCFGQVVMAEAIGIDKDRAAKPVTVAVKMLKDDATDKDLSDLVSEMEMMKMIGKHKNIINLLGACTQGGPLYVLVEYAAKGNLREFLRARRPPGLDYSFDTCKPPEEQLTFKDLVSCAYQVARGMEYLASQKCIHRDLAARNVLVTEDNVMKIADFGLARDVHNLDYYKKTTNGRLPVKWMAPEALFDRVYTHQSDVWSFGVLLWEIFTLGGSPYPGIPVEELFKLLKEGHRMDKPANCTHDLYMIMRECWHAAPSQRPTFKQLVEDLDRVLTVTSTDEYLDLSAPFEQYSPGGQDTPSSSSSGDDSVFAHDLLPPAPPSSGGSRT

[5] = target: Hck (UniProt P08631); assay: as above
Hck, sequence (P08631 whole entry, looked up): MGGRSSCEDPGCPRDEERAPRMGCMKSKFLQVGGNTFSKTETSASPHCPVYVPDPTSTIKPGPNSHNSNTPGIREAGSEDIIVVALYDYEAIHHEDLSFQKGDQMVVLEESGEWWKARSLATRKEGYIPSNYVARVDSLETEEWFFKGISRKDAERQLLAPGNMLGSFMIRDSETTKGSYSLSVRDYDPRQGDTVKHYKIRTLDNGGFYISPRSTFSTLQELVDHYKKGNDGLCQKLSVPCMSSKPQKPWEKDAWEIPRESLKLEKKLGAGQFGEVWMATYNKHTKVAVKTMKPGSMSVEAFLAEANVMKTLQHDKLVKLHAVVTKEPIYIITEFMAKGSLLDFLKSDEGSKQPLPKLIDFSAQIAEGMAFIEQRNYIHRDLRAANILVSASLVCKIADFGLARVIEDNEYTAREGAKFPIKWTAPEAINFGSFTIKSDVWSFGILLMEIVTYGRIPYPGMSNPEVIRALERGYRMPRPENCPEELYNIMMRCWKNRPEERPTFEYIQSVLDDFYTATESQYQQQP

[6] = target: EPHB2 (UniProt P29323); assay: as above
EPHB2, sequence (P29323 whole entry, looked up): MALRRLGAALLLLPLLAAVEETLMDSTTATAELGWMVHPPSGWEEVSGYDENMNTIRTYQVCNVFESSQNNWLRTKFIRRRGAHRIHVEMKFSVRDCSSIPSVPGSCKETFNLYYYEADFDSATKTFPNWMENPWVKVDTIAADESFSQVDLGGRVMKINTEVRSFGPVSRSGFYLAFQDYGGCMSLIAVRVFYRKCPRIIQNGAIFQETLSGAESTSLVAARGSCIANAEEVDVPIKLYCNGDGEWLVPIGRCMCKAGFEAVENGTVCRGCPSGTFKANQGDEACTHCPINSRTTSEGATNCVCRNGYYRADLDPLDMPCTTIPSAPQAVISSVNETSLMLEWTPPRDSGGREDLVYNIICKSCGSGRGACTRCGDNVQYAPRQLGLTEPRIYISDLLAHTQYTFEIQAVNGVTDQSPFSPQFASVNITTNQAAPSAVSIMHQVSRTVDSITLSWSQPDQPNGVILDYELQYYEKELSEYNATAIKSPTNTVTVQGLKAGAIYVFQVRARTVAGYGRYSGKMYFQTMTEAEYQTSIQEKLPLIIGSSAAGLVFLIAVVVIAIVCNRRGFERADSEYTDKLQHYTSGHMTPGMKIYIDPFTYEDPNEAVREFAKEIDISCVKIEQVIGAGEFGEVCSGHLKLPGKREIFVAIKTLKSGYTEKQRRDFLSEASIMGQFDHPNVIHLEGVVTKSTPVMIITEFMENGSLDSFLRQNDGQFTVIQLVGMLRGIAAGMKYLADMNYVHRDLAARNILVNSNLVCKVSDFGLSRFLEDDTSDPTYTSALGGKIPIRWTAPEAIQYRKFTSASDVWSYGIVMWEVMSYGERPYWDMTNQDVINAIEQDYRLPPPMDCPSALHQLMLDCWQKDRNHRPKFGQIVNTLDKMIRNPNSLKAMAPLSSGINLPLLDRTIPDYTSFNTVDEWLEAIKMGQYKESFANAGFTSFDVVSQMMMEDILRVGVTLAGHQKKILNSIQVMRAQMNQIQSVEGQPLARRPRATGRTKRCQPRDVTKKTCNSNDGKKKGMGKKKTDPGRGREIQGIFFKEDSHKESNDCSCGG

[7] = target: Fes (UniProt P07332); assay: as above
[8] = tested on: c-Abl (mouse); assay: as above
[9] = tested on: AncSZ; assay: as above
[10] = target: Jak2 (UniProt O60674); assay: as above
[11] = tested on: c-Src; assay: as above
[12] = target: MERTK (UniProt Q12866); assay: as above
[13] = target: FGFR1 (UniProt P11362); assay: as above
FGFR1, sequence (P11362 whole entry, looked up): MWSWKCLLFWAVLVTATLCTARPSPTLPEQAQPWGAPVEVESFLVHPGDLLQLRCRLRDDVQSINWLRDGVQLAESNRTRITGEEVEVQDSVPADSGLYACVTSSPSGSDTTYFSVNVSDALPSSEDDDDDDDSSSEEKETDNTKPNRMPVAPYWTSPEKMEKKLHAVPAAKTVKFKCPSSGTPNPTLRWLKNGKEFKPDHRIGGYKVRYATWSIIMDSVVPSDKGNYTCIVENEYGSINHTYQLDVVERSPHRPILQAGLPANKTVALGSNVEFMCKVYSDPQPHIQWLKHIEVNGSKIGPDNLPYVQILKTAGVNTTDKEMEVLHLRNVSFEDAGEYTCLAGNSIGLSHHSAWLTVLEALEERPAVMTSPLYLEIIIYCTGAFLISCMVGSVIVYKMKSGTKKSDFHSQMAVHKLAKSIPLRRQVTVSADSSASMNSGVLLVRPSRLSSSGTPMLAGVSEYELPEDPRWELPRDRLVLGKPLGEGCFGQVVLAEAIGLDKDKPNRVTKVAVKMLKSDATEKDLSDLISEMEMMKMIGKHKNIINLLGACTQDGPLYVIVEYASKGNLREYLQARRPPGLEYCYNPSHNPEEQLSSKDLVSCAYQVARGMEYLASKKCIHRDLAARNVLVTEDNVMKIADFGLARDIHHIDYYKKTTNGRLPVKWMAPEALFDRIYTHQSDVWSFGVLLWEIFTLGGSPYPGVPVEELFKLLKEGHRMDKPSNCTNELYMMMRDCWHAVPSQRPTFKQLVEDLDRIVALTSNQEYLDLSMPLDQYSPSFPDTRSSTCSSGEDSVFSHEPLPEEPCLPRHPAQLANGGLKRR

[14] = target: c-Src SH2; assay: SH2 binding enrichment of the phosphorylated peptide, bacterial display (enrichment ratio); higher = better substrate or ligand; peptides without Tyr show the background
[15] = target: Grb2 SH2 (UniProt P62993); assay: as above
Grb2 SH2, sequence (P62993 whole entry, looked up): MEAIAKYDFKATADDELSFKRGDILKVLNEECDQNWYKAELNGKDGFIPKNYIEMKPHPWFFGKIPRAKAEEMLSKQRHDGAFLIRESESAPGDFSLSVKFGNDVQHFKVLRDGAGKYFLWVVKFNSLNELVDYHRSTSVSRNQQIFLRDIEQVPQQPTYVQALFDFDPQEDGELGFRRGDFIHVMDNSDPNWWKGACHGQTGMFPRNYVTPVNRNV

[16] = target: SHP2-C SH2; assay: as above
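For SH2 binding enrichment of the phosphorylated peptide, bacterial display in this document: peptide library displayed on the E. coli surface as eCPX fusions, selected cells deep-sequenced, score is each peptide's frequency after selection divided by its frequency in the input.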
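For phosphorylation enrichment, bacterial display in this document: 11-residue human phosphosite peptides and single-mutation variants displayed on the E. coli surface, counted by deep sequencing, each peptide's frequency after selection divided by its frequency in the unselected input library; frequency after pTyr selection over input frequency; kinase dosed for 20-30% of maximal phosphorylation in three min.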

Fyn, sequence (P06241 whole entry, looked up): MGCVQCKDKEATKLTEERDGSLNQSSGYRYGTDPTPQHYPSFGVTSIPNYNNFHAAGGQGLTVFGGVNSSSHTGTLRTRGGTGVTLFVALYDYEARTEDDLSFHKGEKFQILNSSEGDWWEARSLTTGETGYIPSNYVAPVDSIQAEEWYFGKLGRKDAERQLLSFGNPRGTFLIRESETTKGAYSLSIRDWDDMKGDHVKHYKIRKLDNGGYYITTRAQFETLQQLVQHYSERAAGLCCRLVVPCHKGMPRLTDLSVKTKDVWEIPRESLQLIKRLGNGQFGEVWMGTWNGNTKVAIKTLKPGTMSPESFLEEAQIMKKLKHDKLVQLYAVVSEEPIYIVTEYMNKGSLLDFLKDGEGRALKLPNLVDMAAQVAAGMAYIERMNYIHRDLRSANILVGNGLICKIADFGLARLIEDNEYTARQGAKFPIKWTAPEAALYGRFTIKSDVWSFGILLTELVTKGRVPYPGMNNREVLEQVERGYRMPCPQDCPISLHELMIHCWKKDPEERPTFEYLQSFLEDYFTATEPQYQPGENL

Row | Sequence | phosphorylation enrichment [1] | phosphorylation enrichment [2] | phosphorylation enrichment [3] | phosphorylation enrichment [4] | phosphorylation enrichment [5] | phosphorylation enrichment [6] | phosphorylation enrichment [7] | phosphorylation enrichment [8] | phosphorylation enrichment [9] | phosphorylation enrichment [10] | phosphorylation enrichment [11] | phosphorylation enrichment [12] | phosphorylation enrichment [13] | SH2 binding enrichment [14] | SH2 binding enrichment [15] | SH2 binding enrichment [16]
1 | RLNCIYYKDQT [RS1_Y165_W163C] | 0.878 | 0.497 | 0.722 | 0.751 | 0.889 | 0.639 | 1.16 | 0.897 | 1.01 | 1.21 | 1.74 | 1.57 | 0.971 | 0.527 | 1.15 | 0.456
2 | RRNEEYCLLDS [ITK_Y198] | 1.7 | 0.967 | 1 | 1.12 | 1.1 | 1.06 | 1.64 | 0.821 | 2.25 | 1.57 | 0.805 | 1.26 | 1.15 | 0.836 | 0.75 | 0.54
3 | WVYNHYRWIIW [BRCA2_Y2624] | 0.375 | 0.431 | 0.521 | 0.702 | 0.461 | 0.597 | 1.11 | 0.841 | 0.937 | 1.14 | 0.415 | 0.301 | 0.499 | 0.509 | 1.29 | 1.18
4 | VRFMAYTDETC [F8_Y450_F455C] | 0.403 | 0.522 | 0.649 | 0.773 | 0.662 | 0.59 | 1.3 | 0.973 | 1.11 | 1.05 | 0.413 | 0.431 | 0.544 | 0.627 | 0.83 | 1.03
5 | SRNSKYNAEST [PSEN1_Y315_K311R] | 0.366 | 0.347 | 0.328 | 0.376 | 0.323 | 0.46 | 0.441 | 0.497 | 0.512 | 0.489 | 0.378 | 0.464 | 0.378 | 0.386 | 0.774 | 0.522
6 | SGVVPYEPPEV [TP53_Y220_V216G] | 0.667 | 0.572 | 0.581 | 0.781 | 0.524 | 0.738 | 1.21 | 0.659 | 1.12 | 0.986 | 0.481 | 0.443 | 0.588 | 0.49 | 0.814 | 0.77
7 | CTTIHYNYVCN [TP53_Y234_M237V] | 0.556 | 0.696 | 0.616 | 0.648 | 0.514 | 0.645 | 0.949 | 0.595 | 0.904 | 0.828 | 0.455 | 0.498 | 0.685 | 7.58 | 1.36 | 4.2
8 | ITLKGYNLSNS [GNPTAB_Y728_K732N] | 0.488 | 0.433 | 0.385 | 0.618 | 0.477 | 0.487 | 0.639 | 0.466 | 0.66 | 0.547 | 0.448 | 0.381 | 0.525 | 0.627 | 1.05 | 0.884
9 | QDGYSYPSRQM [LDLR_Y847] | 0.624 | 0.557 | 0.49 | 0.87 | 0.475 | 0.576 | 1.21 | 0.663 | 1.98 | 1.17 | 0.734 | 0.983 | 0.88 | 6.19 | 0.857 | 0.732
10 | ALECLYHREKR [TEKT5_Y195] | 0.512 | 0.451 | 0.618 | 0.734 | 0.583 | 0.675 | 1.15 | 0.927 | 1.26 | 0.884 | 0.571 | 0.406 | 0.484 | 0.446 | 1 | 0.48
11 | RLMLQYDAVVN [SLC25A32_Y152] | 0.57 | 0.662 | 0.733 | 0.674 | 0.702 | 0.703 | 1.67 | 0.685 | 1.32 | 1.13 | 0.406 | 0.414 | 0.47 | 1.88 | 1.02 | 0.863
12 | NHFKIYNLCAE [PTEN_Y68_YF] | 2.61 | 0.535 | 0.412 | 0.647 | 1.12 | 0.516 | 0.766 | 0.52 | 0.882 | 0.577 | 3.12 | 0.584 | 0.676 | 0.974 | 0.967 | 0.825
13 | CTTIHYNFMGN [TP53_Y234_C238G_YF] | 0.464 | 0.472 | 0.565 | 0.523 | 0.478 | 0.487 | 0.876 | 0.699 | 0.926 | 0.73 | 0.402 | 0.532 | 0.542 | 0.772 | 0.96 | 0.788
14 | YALAEYTEVKT [ALDH1A3_Y497] | 0.572 | 1.31 | 0.651 | 1.25 | 0.724 | 0.719 | 0.901 | 0.614 | 1.29 | 0.812 | 0.658 | 0.652 | 1.73 | 5.59 | 0.66 | 4.27
15 | KASGKYFAMKI [AKT3_Y173_YF] | 0.344 | 0.34 | 0.372 | 0.421 | 0.323 | 0.338 | 0.626 | 0.447 | 0.495 | 0.508 | 0.351 | 0.367 | 0.347 | 1.21 | 1.37 | 1.45
16 | MKALGYFAVGT [OPA1_Y498_V502G] | 0.432 | 0.395 | 0.469 | 0.64 | 0.489 | 0.486 | 0.973 | 0.7 | 0.798 | 1.92 | 0.487 | 0.355 | 0.479 | 0.543 | 0.831 | 0.545
17 | LFMGDYVDRGY [PPP2CA_Y86] | 0.699 | 0.612 | 0.983 | 1.02 | 1.01 | 0.977 | 1.47 | 0.982 | 1.6 | 1.41 | 0.8 | 0.701 | 1.46 | 0.711 | 0.696 | 0.927

Row | Sequence | phosphorylation enrichment [1] | phosphorylation enrichment [2] | phosphorylation enrichment [3] | phosphorylation enrichment [4] | phosphorylation enrichment [5] | phosphorylation enrichment [6] | phosphorylation enrichment [7] | phosphorylation enrichment [8] | phosphorylation enrichment [9] | phosphorylation enrichment [10] | phosphorylation enrichment [11] | phosphorylation enrichment [12] | phosphorylation enrichment [13] | SH2 binding enrichment [14] | SH2 binding enrichment [15] | SH2 binding enrichment [16]
18 | TMKSRYMELYD [BBS2_Y644] | 0.475 | 0.426 | 0.535 | 0.556 | 0.694 | 0.608 | 0.868 | 0.624 | 0.812 | 0.808 | 0.73 | 0.456 | 0.489 | 4.93 | 0.809 | 1.2
19 | RFGKVYKGHLF [ROR2_Y488] | 0.717 | 0.585 | 0.377 | 0.754 | 0.604 | 0.767 | 0.924 | 1.69 | 0.806 | 0.803 | 0.86 | 1.02 | 0.661 | 0.331 | 1.13 | 0.61
20 | DPLLTYRFPPN [LMNA_Y481_K486N] | 0.51 | 0.472 | 0.446 | 0.861 | 0.503 | 0.455 | 0.751 | 0.649 | 0.882 | 0.768 | 0.65 | 0.497 | 0.766 | 0.605 | 0.747 | 0.66
21 | FQGGTYSKACT [FGG_Y380_S384C_YF] | 0.35 | 0.46 | 0.404 | 0.439 | 0.473 | 0.366 | 0.589 | 0.633 | 0.528 | 0.503 | 0.447 | 0.446 | 0.448 | 0.783 | 0.918 | 0.746
22 | ELTAKYLNFFQ [P3H4_Y181_YF] | 0.458 | 0.517 | 0.564 | 0.681 | 0.396 | 0.479 | 1.05 | 0.765 | 0.871 | 0.908 | 0.454 | 0.385 | 0.438 | 0.562 | 3.9 | 1.16
23 | PTDSVYVMPTV [MYO7A_Y1668] | 8.58 | 0.77 | 1.15 | 1.68 | 3.43 | 0.708 | 0.926 | 3.01 | 2.78 | 0.827 | 4.43 | 8.35 | 2.32 | 0.429 | 0.911 | 0.683
24 | GGYNNYGYGND [HNRNPH3_Y159] | 0.805 | 0.672 | 1.92 | 0.688 | 0.556 | 3.79 | 0.849 | 1.24 | 0.802 | 0.808 | 0.456 | 0.565 | 0.66 | 0.934 | 1.22 | 0.571
25 | SYKNKYGMVAQ [APOB_Y276] | 0.367 | 0.398 | 0.333 | 0.385 | 0.442 | 0.333 | 0.674 | 0.562 | 0.555 | 0.483 | 0.569 | 0.335 | 0.385 | 0.613 | 1.01 | 0.786
26 | SLTGAYASGIP [POM121C_Y378_T379A] | 0.478 | 0.453 | 0.518 | 0.602 | 0.575 | 0.43 | 0.906 | 0.647 | 0.627 | 0.904 | 0.482 | 0.436 | 0.519 | 0.533 | 0.732 | 0.602
27 | RLRKYHLGKYL [KLB_Y906_Y906H] | 0.318 | 0.426 | 0.439 | 0.464 | 0.253 | 0.399 | 0.498 | 0.61 | 0.726 | 0.483 | 0.387 | 0.503 | 0.29 | 0.395 | 0.476 | 0.594
28 | KQNSLYSFSDH [CCDC82_Y331] | 5.24 | 3.95 | 0.853 | 0.536 | 3.25 | 0.651 | 0.907 | 0.691 | 1 | 0.853 | 3.97 | 9.08 | 0.489 | 0.466 | 0.765 | 0.609
29 | SLIDMYSKVLD [OPA1_Y268_E270K] | 0.421 | 0.501 | 0.462 | 0.637 | 0.497 | 0.57 | 1.02 | 0.482 | 0.953 | 0.814 | 0.478 | 0.481 | 0.479 | 1.6 | 0.777 | 0.737
30 | FTNRNYDLDFD [MYC_Y12_YF] | 0.5 | 0.543 | 0.751 | 0.696 | 0.634 | 0.587 | 1.42 | 1.01 | 1.36 | 1.22 | 0.633 | 0.494 | 0.561 | 3.48 | 0.828 | 0.659
31 | ELTTCYRKKCC [CCBE1_Y70] | 0.444 | 0.393 | 0.441 | 0.507 | 0.396 | 0.48 | 0.785 | 0.559 | 0.817 | 0.652 | 0.379 | 0.413 | 0.485 | 0.741 | 1.02 | 0.873
32 | SHNELYYEAAE [VANGL1_Y344_E347A] | 0.986 | 3.52 | 1 | 2.54 | 1.1 | 0.737 | 1.12 | 0.801 | 1.6 | 1.18 | 1.17 | 1.9 | 2.63 | 1.4 | 0.726 | 0.922
33 | PPVVNYEEDAR [FER_Y402] | 0.896 | 0.585 | 0.957 | 0.968 | 0.64 | 0.892 | 1.86 | 0.824 | 1.26 | 1.4 | 0.534 | 0.856 | 0.569 | 0.806 | 0.745 | 1.01
